± gives the uncertainty stated by the source.

Experimental findings from the Human Domainome abundance scans (Beltran et al. 2025) are described below.

The data set can be described thus: abundance fitness (aPCA) (normalised: wild type 0, dead -1); higher = more abundant; growth selection in yeast, the domain comes from the species named. Particulars: Saccharomyces cerevisiae (strain ATCC 204508 / S288c).
Consider “E3 ubiquitin-protein ligase RSP5 Q339E, P39940”, for which the abundance fitness amounted to 0.006 ± 0.054. “E3 ubiquitin-protein ligase RSP5 Q339F, P39940” yielded an abundance fitness of -0.26 ± 0.074. In the case of “E3 ubiquitin-protein ligase RSP5 Q339G, P39940” it was -0.256 ± 0.044; in that of “E3 ubiquitin-protein ligase RSP5 Q339H, P39940”, -0.134 ± 0.058. The result for “E3 ubiquitin-protein ligase RSP5 Q339I, P39940” reads -0.073 ± 0.069; that for “E3 ubiquitin-protein ligase RSP5 Q339K, P39940”, 0.026 ± 0.077.

“E3 ubiquitin-protein ligase RSP5 Q339L, P39940” returned an abundance fitness of -0.109 ± 0.051.

“E3 ubiquitin-protein ligase RSP5 Q339M, P39940”: the abundance fitness is -0.008 ± 0.069. The result for “E3 ubiquitin-protein ligase RSP5 Q339P, P39940” reads -0.297 ± 0.062; that for “E3 ubiquitin-protein ligase RSP5 Q339R, P39940”, -0.051 ± 0.043. The result for “E3 ubiquitin-protein ligase RSP5 Q339S, P39940” reads -0.138 ± 0.047; that for “E3 ubiquitin-protein ligase RSP5 Q339T, P39940”, -0.11 ± 0.065; that for “E3 ubiquitin-protein ligase RSP5 Q339V, P39940”, -0.076 ± 0.045. In the case of “E3 ubiquitin-protein ligase RSP5 Q339W, P39940” it was -0.406 ± 0.046.

Regarding “E3 ubiquitin-protein ligase RSP5 Q339Y, P39940”, the abundance fitness is -0.181 ± 0.1. In the case of “E3 ubiquitin-protein ligase RSP5 Q365A, P39940” it was 0.097 ± 0.044; in that of “E3 ubiquitin-protein ligase RSP5 Q365C, P39940”, 0.077 ± 0.089. Substance “E3 ubiquitin-protein ligase RSP5 Q365E, P39940” displayed an abundance fitness of 0.057 ± 0.059. The result for “E3 ubiquitin-protein ligase RSP5 Q365F, P39940” reads -0.034 ± 0.15; that for “E3 ubiquitin-protein ligase RSP5 Q365G, P39940”, 0.052 ± 0.046. The substance “E3 ubiquitin-protein ligase RSP5 Q365H, P39940” gave an abundance fitness of 0.167 ± 0.11.

“E3 ubiquitin-protein ligase RSP5 Q365K, P39940”: the abundance fitness was 0.022 ± 0.064.

“E3 ubiquitin-protein ligase RSP5 Q365L, P39940” had an abundance fitness of 0.033 ± 0.058.

For the substance “E3 ubiquitin-protein ligase RSP5 Q365M, P39940”, the abundance fitness was -0.022 ± 0.17. In the case of “E3 ubiquitin-protein ligase RSP5 Q365R, P39940” it was 0.014 ± 0.043; in that of “E3 ubiquitin-protein ligase RSP5 Q365S, P39940”, 0.038 ± 0.062; in that of “E3 ubiquitin-protein ligase RSP5 Q365V, P39940”, -0.014 ± 0.045. In the case of “E3 ubiquitin-protein ligase RSP5 Q365W, P39940” it was 0.051 ± 0.08; in that of “E3 ubiquitin-protein ligase RSP5 Q365Y, P39940”, -0.004 ± 0.1; in that of “E3 ubiquitin-protein ligase RSP5 Q366A, P39940”, 0.047 ± 0.13. On to “E3 ubiquitin-protein ligase RSP5 Q366C, P39940”, for which the abundance fitness is -0.572 ± 0.41. The result for “E3 ubiquitin-protein ligase RSP5 Q366G, P39940” reads 0.131 ± 0.064; that for “E3 ubiquitin-protein ligase RSP5 Q366H, P39940”, -0.304 ± 0.19. For “E3 ubiquitin-protein ligase RSP5 Q366L, P39940”, the abundance fitness stood at 0.24 ± 0.11. Consider “E3 ubiquitin-protein ligase RSP5 Q366R, P39940”, for which the abundance fitness came out at 0.117 ± 0.053. In turn, “E3 ubiquitin-protein ligase RSP5 Q366S, P39940” had an abundance fitness of -0.008 ± 0.077.
